Here are results for four molecules from patent publication US20190077860A1 (EISAI R AND D MANAGEMENT, published 2019).

Assay in all cases: ELISA
(In an ELISA, binding on a coated surface is turned into a signal by an enzyme label.)

One assay addresses SEAP-His (UniProt P05187 23-511).
Assay [1] deals with T1, human EphA2 extracellular region-SEAP-His protein (human, UniProt P29317 24-537).
T1 construct: extracellular domain; also called hEphA2-SEAP-His

In assay [2] the target is T2, human EphA6 extracellular region-SEAP-His protein (human, UniProt Q9UF33 23-550).
T2 construct: extracellular domain; also called hEphA6-SEAP-His
T2 sequence (looked up): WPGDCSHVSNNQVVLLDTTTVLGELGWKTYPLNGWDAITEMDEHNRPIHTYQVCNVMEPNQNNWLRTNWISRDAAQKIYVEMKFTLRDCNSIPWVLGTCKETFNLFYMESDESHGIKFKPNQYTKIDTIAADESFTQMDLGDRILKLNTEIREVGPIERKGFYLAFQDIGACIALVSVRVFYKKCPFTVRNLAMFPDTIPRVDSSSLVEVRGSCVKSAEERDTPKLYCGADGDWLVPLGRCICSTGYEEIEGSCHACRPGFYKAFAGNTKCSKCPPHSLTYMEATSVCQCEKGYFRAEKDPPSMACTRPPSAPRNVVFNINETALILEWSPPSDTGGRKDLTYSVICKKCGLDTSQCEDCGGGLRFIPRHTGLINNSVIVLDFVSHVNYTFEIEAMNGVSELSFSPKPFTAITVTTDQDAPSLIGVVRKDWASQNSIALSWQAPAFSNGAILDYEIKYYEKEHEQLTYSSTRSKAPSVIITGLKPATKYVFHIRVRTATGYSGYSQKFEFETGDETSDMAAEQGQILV

For assay [3], the target named is T3, human EphA10 extracellular region-SEAP-His protein (human, UniProt Q5JZY3 34-565).
T3 construct: extracellular domain; also called hEphA10-SEAP-His
T3 sequence (looked up): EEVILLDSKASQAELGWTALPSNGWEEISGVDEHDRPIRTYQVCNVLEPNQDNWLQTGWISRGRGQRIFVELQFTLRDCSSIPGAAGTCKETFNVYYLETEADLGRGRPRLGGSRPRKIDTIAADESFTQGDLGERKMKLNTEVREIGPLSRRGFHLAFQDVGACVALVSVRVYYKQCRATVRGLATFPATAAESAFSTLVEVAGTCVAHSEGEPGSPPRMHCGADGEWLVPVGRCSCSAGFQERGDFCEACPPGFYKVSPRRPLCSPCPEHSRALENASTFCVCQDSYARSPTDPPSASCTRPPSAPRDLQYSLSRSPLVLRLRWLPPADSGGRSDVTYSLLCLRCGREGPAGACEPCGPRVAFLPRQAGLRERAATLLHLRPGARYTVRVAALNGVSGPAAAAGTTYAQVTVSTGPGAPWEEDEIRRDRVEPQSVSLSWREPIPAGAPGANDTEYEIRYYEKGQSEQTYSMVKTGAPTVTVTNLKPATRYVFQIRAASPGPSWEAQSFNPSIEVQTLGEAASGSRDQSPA

Assay [4] concerns the target T4, human EphB2 extracellular region-SEAP-His protein (human, UniProt P29323 19-543).
T4 construct: extracellular domain; also called hEphB2-SEAP-His
T4 sequence (looked up): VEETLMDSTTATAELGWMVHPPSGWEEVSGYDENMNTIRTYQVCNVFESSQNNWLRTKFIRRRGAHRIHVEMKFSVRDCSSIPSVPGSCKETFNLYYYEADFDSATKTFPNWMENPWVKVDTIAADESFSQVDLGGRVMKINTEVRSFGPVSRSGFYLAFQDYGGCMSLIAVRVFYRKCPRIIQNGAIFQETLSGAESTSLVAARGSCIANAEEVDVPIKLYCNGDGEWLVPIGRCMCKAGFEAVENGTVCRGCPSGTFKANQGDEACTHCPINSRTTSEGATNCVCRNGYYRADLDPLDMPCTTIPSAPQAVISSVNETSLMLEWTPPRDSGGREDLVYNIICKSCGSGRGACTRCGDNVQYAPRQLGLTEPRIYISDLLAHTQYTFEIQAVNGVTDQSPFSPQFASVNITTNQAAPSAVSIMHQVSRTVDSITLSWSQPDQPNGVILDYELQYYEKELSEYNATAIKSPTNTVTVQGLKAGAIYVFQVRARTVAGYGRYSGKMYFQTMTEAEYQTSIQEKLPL

In assay [5] the target is T5, human EphB6 extracellular region-SEAP-His protein (human, UniProt O15197 32-594).
T5 construct: extracellular domain; also called hEphB6-SEAP-His
T5 sequence (looked up): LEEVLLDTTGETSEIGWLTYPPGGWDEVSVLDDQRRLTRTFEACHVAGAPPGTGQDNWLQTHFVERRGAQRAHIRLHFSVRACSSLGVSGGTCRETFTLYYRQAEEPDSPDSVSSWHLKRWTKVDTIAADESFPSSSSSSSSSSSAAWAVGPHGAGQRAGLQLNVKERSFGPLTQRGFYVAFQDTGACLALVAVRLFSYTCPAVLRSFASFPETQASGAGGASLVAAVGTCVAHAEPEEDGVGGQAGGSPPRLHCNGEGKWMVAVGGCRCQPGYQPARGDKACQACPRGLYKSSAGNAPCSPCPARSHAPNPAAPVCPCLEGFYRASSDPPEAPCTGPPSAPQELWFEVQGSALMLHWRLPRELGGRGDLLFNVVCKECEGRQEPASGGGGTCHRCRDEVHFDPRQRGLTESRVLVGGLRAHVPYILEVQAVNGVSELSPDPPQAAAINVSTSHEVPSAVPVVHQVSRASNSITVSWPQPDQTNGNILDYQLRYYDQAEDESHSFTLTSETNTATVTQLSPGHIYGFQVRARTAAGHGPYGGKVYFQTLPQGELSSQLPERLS

T1 sequence (P29317 24-537): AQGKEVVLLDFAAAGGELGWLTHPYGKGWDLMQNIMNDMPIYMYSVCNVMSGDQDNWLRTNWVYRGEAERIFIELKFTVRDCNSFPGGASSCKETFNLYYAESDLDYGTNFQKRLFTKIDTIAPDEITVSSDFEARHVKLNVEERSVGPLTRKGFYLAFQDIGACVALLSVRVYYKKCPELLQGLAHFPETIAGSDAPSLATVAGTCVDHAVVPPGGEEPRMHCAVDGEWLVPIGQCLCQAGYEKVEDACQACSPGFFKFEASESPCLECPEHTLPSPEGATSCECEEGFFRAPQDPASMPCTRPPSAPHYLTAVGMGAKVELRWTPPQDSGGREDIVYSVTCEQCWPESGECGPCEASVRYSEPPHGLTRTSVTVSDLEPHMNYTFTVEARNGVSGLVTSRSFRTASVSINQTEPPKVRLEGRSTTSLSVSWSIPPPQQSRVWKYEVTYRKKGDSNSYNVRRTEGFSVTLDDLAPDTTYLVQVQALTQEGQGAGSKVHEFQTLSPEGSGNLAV
SEAP-His, sequence (P05187 23-511): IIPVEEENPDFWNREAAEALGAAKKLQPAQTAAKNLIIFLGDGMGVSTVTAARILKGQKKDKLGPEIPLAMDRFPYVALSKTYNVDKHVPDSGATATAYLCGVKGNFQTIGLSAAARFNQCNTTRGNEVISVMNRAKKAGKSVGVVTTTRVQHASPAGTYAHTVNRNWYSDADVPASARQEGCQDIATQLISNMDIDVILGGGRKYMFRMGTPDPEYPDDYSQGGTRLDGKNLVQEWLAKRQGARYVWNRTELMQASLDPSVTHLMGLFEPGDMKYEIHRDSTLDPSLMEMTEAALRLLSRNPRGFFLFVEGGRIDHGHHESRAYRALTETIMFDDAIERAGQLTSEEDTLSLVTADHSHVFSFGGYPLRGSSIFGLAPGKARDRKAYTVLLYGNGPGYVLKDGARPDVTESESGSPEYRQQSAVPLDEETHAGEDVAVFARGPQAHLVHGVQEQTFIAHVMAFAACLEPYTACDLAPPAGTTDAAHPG

B1: humanized antibody No. 144 (antibody, human IgG2)
heavy: QVQLVQSGSELKKPGASVKVSCKASGYTFTDYSMHWVRQAPGQGLEWMGWINTETGEPTYADDFKGRFVFSLDTSVSTAYLQISSLKAEDTAVYYCARIPLYYYGSRYWYFDVWGQGTTVTVSSASTKGPSVFPLAPSSRSTSESTAALGCLVKDYFPEPVTVSWNSGALTSGVHTFPAVLQSSGLYSLSSVVTVPSSNFGTQTYTCNVDHKPSNTKVDKTVERKSCVECPPCPAPPAAAPSVFLFPPKPKDTLMISRTPEVTCVVVDVSHEDPEVQFNWYVDGVEVHNAKTKPREEQFNSTFRVVSVLTVVHQDWLNGKEYKCKVSNKGLPAPIEKTISKTKGQPREPQVYTLPPSREEMTKNQVSLTCLVKGFYPSDIAVEWESNGQPENNYKTTPPMLDSDGSFFLYSKLTVDKSRWQQGNVFSCSVMHEALHNHYTQKSLSLSPG
light: DIQMTQSPSSLSASVGDRVTITCRASENIYRNLAWYQQKPGKAPQLLLYAATNLADGVPSRFSGSGSGTDYTLTISSLQPEDFATYYCQHFWGTPWTFGQGTKVEIKRTVAAPSVFIFPPSDEQLKSGTASVVCLLNNFYPREAKVQWKVDNALQSGNSQESVTEQDSKDSTYSLSSTLTLSKADYEKHKVYACEVTHQGLSSPVTKSFNRGEC
notes: human Ig kappa; also called L1-6/HK1
B1: the “A450 as % of hEphA4-SEAP-His” value in the assay with SEAP-His was determined as 5.7%; in assay [1], 5.6%; in assay [2], 8.1%; in assay [3], 5.7%; in assay [4], 5.7%; in assay [5], 5.9%.

B2: humanized antibody No. 151 (antibody, human IgG2)
heavy: QIQLVQSGSELKKPGASVKVSCKASGYTFTDYSMHWVRQAPGQGLKWMGWINTETGEPTYAQGFTGRFVFSLDTSVSTAYLQISSLKAEDTAVYYCARIPLYYYGSRYWYFDVWGQGTTVTVSSASTKGPSVFPLAPSSRSTSESTAALGCLVKDYFPEPVTVSWNSGALTSGVHTFPAVLQSSGLYSLSSVVTVPSSNFGTQTYTCNVDHKPSNTKVDKTVERKSCVECPPCPAPPAAAPSVFLFPPKPKDTLMISRTPEVTCVVVDVSHEDPEVQFNWYVDGVEVHNAKTKPREEQFNSTFRVVSVLTVVHQDWLNGKEYKCKVSNKGLPAPIEKTISKTKGQPREPQVYTLPPSREEMTKNQVSLTCLVKGFYPSDIAVEWESNGQPENNYKTTPPMLDSDGSFFLYSKLTVDKSRWQQGNVFSCSVMHEALHNHYTQKSLSLSPG
light: DIQMTQSPSSLSASVGDRVTITCRASENIYRNLAWYQQKPGKAPKLLLYAATNLADGVPSRFSGSGSGTDYTLTISSLQSEDFATYYCQHFWGTPWTFGQGTKVEIKRTVAAPSVFIFPPSDEQLKSGTASVVCLLNNFYPREAKVQWKVDNALQSGNSQESVTEQDSKDSTYSLSSTLTLSKADYEKHKVYACEVTHQGLSSPVTKSFNRGEC
notes: human Ig kappa; also called L1-5/HA4
Turning to B2, the “A450 as % of hEphA4-SEAP-His” value came out at 6.8% with SEAP-His; 6.9% in assay [1]; 9.9% in assay [2]; 6.6% in assay [3]; 7% in assay [4]; 7.1% in assay [5].

B3: humanized antibody No. 145 (antibody, human IgG2)
heavy: QVQLVQSGSELKKPGASVKVSCKASGYTFTDYSMHWVRQAPGQGLKWMGWINTETGEPTYADDFKGRFVFSLDTSVSTAYLQISSLKAEDTAVYYCARIPLYYYGSRYWYFDVWGQGTTVTVSSASTKGPSVFPLAPSSRSTSESTAALGCLVKDYFPEPVTVSWNSGALTSGVHTFPAVLQSSGLYSLSSVVTVPSSNFGTQTYTCNVDHKPSNTKVDKTVERKSCVECPPCPAPPAAAPSVFLFPPKPKDTLMISRTPEVTCVVVDVSHEDPEVQFNWYVDGVEVHNAKTKPREEQFNSTFRVVSVLTVVHQDWLNGKEYKCKVSNKGLPAPIEKTISKTKGQPREPQVYTLPPSREEMTKNQVSLTCLVKGFYPSDIAVEWESNGQPENNYKTTPPMLDSDGSFFLYSKLTVDKSRWQQGNVFSCSVMHEALHNHYTQKSLSLSPG
light: DIQMTQSPSSLSASVGDRVTITCRASENIYRNLAWYQQKPGKAPKLLLYAATNLADGVPSRFSGSGSGTDYTLTISSLQSEDFATYYCQHFWGTPWTFGQGTKVEIKRTVAAPSVFIFPPSDEQLKSGTASVVCLLNNFYPREAKVQWKVDNALQSGNSQESVTEQDSKDSTYSLSSTLTLSKADYEKHKVYACEVTHQGLSSPVTKSFNRGEC
notes: human Ig kappa; also called L1-5/HK2
B3: the “A450 as % of hEphA4-SEAP-His” value with SEAP-His was 6.4%; in assay [1], 6.5%; in assay [2], 8.6%; in assay [3], 6.5%; in assay [4] it was 6.7%; in assay [5], 6.6%.

B4: humanized antibody No. 152 (antibody, human IgG2)
heavy: QVQLVQSGSELKKPGASVKVSCKASGYTFTDYSMHWVRQAPGQGLEWMGWINTETGEPTYAQGFTGRFVFSLDTSVSTAYLQISSLKAEDTAVYYCARIPLYYYGSRYWYFDVWGQGTTVTVSSASTKGPSVFPLAPSSRSTSESTAALGCLVKDYFPEPVTVSWNSGALTSGVHTFPAVLQSSGLYSLSSVVTVPSSNFGTQTYTCNVDHKPSNTKVDKTVERKSCVECPPCPAPPAAAPSVFLFPPKPKDTLMISRTPEVTCVVVDVSHEDPEVQFNWYVDGVEVHNAKTKPREEQFNSTFRVVSVLTVVHQDWLNGKEYKCKVSNKGLPAPIEKTISKTKGQPREPQVYTLPPSREEMTKNQVSLTCLVKGFYPSDIAVEWESNGQPENNYKTTPPMLDSDGSFFLYSKLTVDKSRWQQGNVFSCSVMHEALHNHYTQKSLSLSPG
light: DIQMTQSPSSLSASVGDRVTITCRASENIYRNLAWYQQKPGKAPKLLLYAATNLADGVPSRFSGSGSGTDYTLTISSLQSEDFATYYCQHFWGTPWTFGQGTKVEIKRTVAAPSVFIFPPSDEQLKSGTASVVCLLNNFYPREAKVQWKVDNALQSGNSQESVTEQDSKDSTYSLSSTLTLSKADYEKHKVYACEVTHQGLSSPVTKSFNRGEC
notes: human Ig kappa; also called L1-5/HA1
For the molecule B4, the “A450 as % of hEphA4-SEAP-His” value in the assay with SEAP-His stood at 5.4%; in assay [1], 5.8%; in assay [2], 8.3%; in assay [3] it was 5.8%; in assay [4], 5.8%; in assay [5], 5.9%.
